From publication PMC12188478, “Leveraging the Aminothiol-Specific Phosphorogenic Response of Iridium(III) Thioester Complexes for the Development of Intracellular Sensors and Cancer Phototherapeutics” (JACS Au, 2025)
Peptide text beside a SMILES is read from it. * marks the point of attachment. X1 = Cc1cc[n+]2c(c1)-c1cc(C(=O)*)cc[n+]1[Ir-3]213([c]2c(sc4ccccc24)-c2c4ccccc4cc[n+]21)[c]1c(sc2ccccc12)-c1c2ccccc2cc[n+]13; Isonicotinoyl(2-(4-Me-2-Py)) = Cc1ccnc(-c2cc(C(=O)*)ccn2)c1

Key:
[1] = 1O2 generation quantum yield; assay type: physicochemical; conditions: aerated CH3CN/H2O (4:1, v/v), 298 K, λex 450 nm
Procedure: The ^1O2 generation efficiencies of all complexes were evaluated by monitoring the emission band of ^1O2 centered at ca. […]

MDA-MB-231 cells [2] = test: Cellular uptake mechanism studies (ICP-MS); assay type: cell-based; conditions: 10 μM
Procedure: Conjugate 3a-CASP: MDA-MB-231 cells were seeded in a 35-mm tissue culture dish and incubated at 37 °C under a 5% CO2 atmosphere for 48 h. The culture medium was removed and replaced with conjugate 3a-CASP (10 μM) in medium/DMSO (99:1, v/v) at 37 °C under a 5% CO2 atmosphere for 4 or 16 h. In the low-temperature experiments, the cells were preincubated at 4 °C for 1 h prior to incubation with conjugate 3a-CASP (10 μM) in medium/DMSO (99:1, v/v) […]. In the chemical inhibition experiments, the cells were pretreated with EIPA (50 μM) for 1.5 h, Me-β-CD (5 mM) for 1 h, or chlorpromazine (30 μM) for 1 h at 37 °C under a 5% CO2 atmosphere. The cells were then washed with PBS (1 mL × 3) and incubated with conjugate 3a-CASP (10 μM) in medium/DMSO (99:1, v/v) at 37 °C under a 5% CO2 atmosphere for 16 h.
(§1) Conjugate 3a-CYNT: MDA-MB-231 cells were seeded in a 35-mm tissue culture dish and incubated at 37 °C under a 5% CO2 atmosphere for 48 h. The culture medium was removed and replaced with conjugate 3a-CYNT (10 μM) in medium/DMSO (99:1, v/v) at 37 °C under a 5% CO2 atmosphere for 16 h. In the CAIX inhibition experiments, the cells were pretreated with acetazolamide (1 mM) at 37 °C under a 5% CO2 atmosphere for 6 h. The cells were then washed with PBS (1 mL × 3) and incubated with conjugate 3a-CYNT (10 μM) in medium/DMSO (99:1, v/v) at 37 °C under a 5% CO2 atmosphere for 16 h.
as §1, with “Conjugate 3a-CMYI:” for “Conjugate 3a-CYNT:”, “conjugate 3a-CMYI” for “conjugate 3a-CYNT”, “the EGFR” for “the CAIX”, “with gefitinib (50 μM)” for “with acetazolamide (1 mM)”, “for 1” for “for 6”
For all the experiments, after incubation with the conjugates, the medium was removed, and the cells were washed with PBS (1 mL × 3). The cells were then trypsinized and harvested with PBS (1 mL). The cell numbers were measured by a Logos Biosystems LUNA-II automated cell counter. The resultant solution was digested with 65% HNO3 (1 mL) at 70 °C for 2 h, allowed to cool to room temperature, and analyzed by a NexION 2000 ICP-MS (PerkinElmer SCIEX Instruments).

MDA-MB-231 cells [3] = test: Cellular uptake by ICP-MS; assay type: cell-based; conditions: 10 μM, 37 °C, 16 h
Procedure: (§2) HeLa or HEK-293 cells were seeded in a 35-mm tissue culture dish and incubated at 37 °C under a 5% CO2 atmosphere for 48 h. The culture medium was removed and replaced with complexes 1a and 3a (10 μM) in medium/DMSO (99:1, v/v) at 37 °C under a 5% CO2 atmosphere for 2 h. After the treatment, the medium was removed, and the cells were washed with PBS (1 mL × 3). The cells were then trypsinized and harvested with PBS (1 mL). The cell numbers were obtained by a Logos Biosystems LUNA-II automated cell counter. The resultant solution was digested with 65% HNO3 (1 mL) at 70 °C for 2 h, allowed to cool to room temperature, and analyzed by a NexION 2000 ICP-MS (PerkinElmer SCIEX Instruments). For conjugates 3a-Cys, 3a-CASP, 3a-CYNT, and 3a-CMYI, the procedure was similar to that of complexes 1a and 3a, except that MDA-MB-231, MCF-7, and HEK-293 cells were used and the conjugates were incubated for 16 h instead of 2 h before the measurements.

HEK-293 cells [4] = test: Cellular uptake by ICP-MS; assay type: cell-based; conditions: 10 μM, 37 °C, 16 h
Procedure: as §2

MCF-7 cells [5] = test: Cellular uptake by ICP-MS; assay type: cell-based; conditions: 10 μM, 37 °C, 16 h
Procedure: as §2

MDA-MB-231 cells [6] = test: MTT (photo)cytotoxicity assay; assay type: cell-based; conditions: ratio IC50,dark/IC50,light, 24 h incubation
Procedure: (§3) HeLa or HEK-293 cells were seeded in two 96-well flat-bottomed microplates (ca. 10,000 cells per well) in growth medium (100 μL) and incubated at 37 °C under a 5% CO2 atmosphere for 48 h. The growth medium was removed and replaced with medium/DMSO (100 μL, 99:1, v/v) containing complex 3a with concentrations ranging from 10^–5 to 10^–8 M. Wells containing untreated cells were used as blank control. The microplates were incubated at 37 °C in the dark under a 5% CO2 atmosphere for 2 h. After the treatment, the medium was removed and replenished with phenol red-free growth medium (100 μL). One of the microplates was irradiated at 450 nm (14.6 mW cm^–2) for 10 min with an LED cellular photocytotoxicity irradiator (PURI Materials, Shenzhen, China) and the other microplate was kept in the dark. Then the growth medium was replaced with fresh medium and the cells were further incubated at 37 °C under a 5% CO2 atmosphere for 24 h. The medium in each well was then replaced with fresh medium (90 μL) and 10 μL of MTT (5 mg mL^ –1) in PBS. The microplates were incubated at 37 °C under a 5% CO2 atmosphere for 4 h. The growth medium was then removed, and DMSO (100 μL) was added to each well. After 20 min, the absorbance of the solutions at 570 nm was measured with an Multiskan SkyHigh Microplate Spectrophotometer (Thermo Scientific). The IC50 values of the complex were determined from dose dependence of surviving cells after the treatment using the OriginPro 8.0 software package. For conjugates 3a-CASP, 3a-CYNT, and 3a-CMYI, the procedure was similar to that of complex 3a, except that MDA-MB-231, MCF-7, and HEK-293 cells were used and the conjugates were incubated for 24 h instead of 2 h before irradiation.

HEK-293 cells [7] = test: MTT (photo)cytotoxicity assay; assay type: cell-based; conditions: ratio IC50,dark/IC50,light, 24 h incubation
Procedure: as §3

MCF-7 cells [8] = test: MTT (photo)cytotoxicity assay; assay type: cell-based; conditions: ratio IC50,dark/IC50,light, 24 h incubation
Procedure: as §3

[9] = Reaction kinetics with L-Cys by HPLC; conditions: potassium phosphate buffer (50 mM, pH 7.0)/DMSO (3:2, v/v), TCEP 250 μM, 298 K
Procedure: The reactivity of the thioester complexes 1a–4a toward N-Cys-containing biomolecules in potassium phosphate buffer (50 mM, pH 7.0)/DMSO (3:2, v/v) containing tris(2-carboxyethyl)-phosphine (TCEP) (250 μM) at 298 K (Scheme ) were investigated using L-Cys as a model. […] The formation of the conjugation products 1a-Cys–4a-Cys was validated by ESI-MS analyses (Figure S7). The isolated conjugate 1a-Cys was further characterized by 1D and 2D COSY ^1H NMR. The signals at δ = 8.18 and 1.89 ppm in the ^1H NMR spectra (Figures S8 and S9) correspond to the CONH and SH protons, respectively, confirming the successful labeling of L-Cys with the thioester complex via the NCL reaction involving transthioesterification and an S → N acyl shift. […]
All reactions were performed on a 100-µL scale. The reaction kinetics of the thioester complexes 1a – 4a (20 µM) and ligand bpy-COSBn (100 µM) with L-Cys (25 µM for the complexes and 250 µM for the ligand) in potassium phosphate buffer (50 mM, pH 7.0)/DMSO (3:2, v/v) containing TCEP (250 µM) at 298 K was measured by reversed-phase high-performance liquid chromatography (RP-HPLC). The reactions at different time points were quenched by the addition of 900 µL of cold H2O/CH3CN (1:1, v/v) and then analyzed by RP-HPLC. […] The second-order rate constants (k2) were determined by fitting the data to the following equation: […]

Structure (SMILES) | 1O2 generation quantum yield (ΦΔ) [1] | decrease in intracellular iridium content at 4 °C (MDA-MB-231 cells [2]; 4 h, 4 °C versus 37 °C) | reduction of cellular uptake efficiency after chlorpromazine pretreatment (MDA-MB-231 cells [2]; 16 h, chlorpromazine 30 μM, 1 h) | Amount of iridium associated with an average cell (MDA-MB-231 cells [3]) [fmol] | Amount of iridium associated with an average cell (HEK-293 cells [4]) [fmol] | Amount of iridium associated with an average cell (MCF-7 cells [5]) [fmol] | PI (MDA-MB-231 cells [6]) | PI (HEK-293 cells [7]) | PI (MCF-7 cells [8]) | reduction of uptake after gefitinib (EGFR inhibitor) pretreatment (MDA-MB-231 cells [2]; 16 h, gefitinib 50 μM, 1 h) [%] | reduction of uptake after acetazolamide (CAIX inhibitor) pretreatment (MDA-MB-231 cells [2]; 16 h, acetazolamide 1 mM, 6 h) | second-order rate constant (k2) for reaction with L-Cys [9] [M^–1 s^–1]
Cc1ccnc(-c2cc(C(=O)N[C@@H](CS)C(=O)N[C@@H](C)C(=O)N[C@@H](CO)C(=O)N3CCC[C@H]3C(=O)N[C@@H](CO)C(=O)NCC(=O)N[C@@H](C)C(=O)N[C@@H](CC(C)C)C(=O)N[C@@H](CCCNC(=N)N)C(=O)N[C@@H](CO)C(=O)N[C@@H](CS)C(=O)O)ccn2)c1 [Conjugate 3a-CASP] ({Isonicotinoyl(2-(4-Me-2-Py))}-CASPSGALRSC-OH; C-terminus assumed) | 0.24 | ca. 70% | ca. 30% | 1.6 | 0.074 | 0.10 | >61 | >18 | >18 |  |  | 
CC[C@H](C)[C@H](NC(=O)[C@H](Cc1ccc(O)cc1)NC(=O)[C@H](CCSC)NC(=O)[C@H](CS)NC(=O)c1cc[n+]2c(c1)-c1cc(C)cc[n+]1[Ir-3]213([c]2c(sc4ccccc24)-c2c4ccccc4cc[n+]21)[c]1c(sc2ccccc12)-c1c2ccccc2cc[n+]13)C(=O)N[C@@H](CCC(=O)O)C(=O)N[C@@H](C)C(=O)N[C@@H](CC(C)C)C(=O)N[C@@H](CC(=O)O)C(=O)N[C@@H](CCCCN)C(=O)N[C@@H](Cc1ccc(O)cc1)C(=O)N[C@@H](C)C(=O)N[C@@H](CS)C(=O)O [Conjugate 3a-CMYI] (X1-CMYIEALDKYAC-OH; C-terminus assumed) | 0.20 |  |  | 0.21 | 0.033 | 0.074 | >109 | >28 | >25 | ~10 |  | 
Cc1cc[n+]2c(c1)-c1cc(C(=O)N[C@@H](CS)C(=O)N[C@@H](Cc3ccc(O)cc3)C(=O)N[C@@H](CC(N)=O)C(=O)N[C@H](C(=O)N[C@@H](CC(N)=O)C(=O)N[C@@H](Cc3c[nH]cn3)C(=O)N[C@H](C(=O)N3CCC[C@H]3C(=O)N[C@@H](CC(C)C)C(=O)N[C@@H](CO)C(=O)N3CCC[C@H]3C(=O)N[C@@H](CCCCN)C(=O)N[C@@H](Cc3ccc(O)cc3)C(=O)O)C(C)C)[C@@H](C)O)cc[n+]1[Ir-3]213([c]2c(sc4ccccc24)-c2c4ccccc4cc[n+]21)[c]1c(sc2ccccc12)-c1c2ccccc2cc[n+]13 [Conjugate 3a-CYNT] (X1-CYNTNHVPLSPKY-OH; C-terminus assumed) | 0.28 |  |  | 1.8 | 0.10 | 0.10 | >139 | >45 | >38 |  | ca. 20% | 
Cc1ccnc(-c2cc(C(=O)SCc3ccccc3)ccn2)c1 [bpy-COSBn, S-benzyl 4’-methyl-2,2’-bipyridine-4-carbothioate] |  |  |  |  |  |  |  |  |  |  |  | 11.3
